Assay: Pharmacokinetics study in mice after tail vein injection
Assay type: in vivo
Details: fasted CD1 mice, i.v. tail vein, 16 Qg/kg of insulin, 3-60 min, ELISA, n = 5

insulin
plasma concentration of insulin after injection: not detectable at any time point
